B1: LINE1-full (parent)
chain: UACGUAGGUGGUUUUCCCCUGAUAGUGCUAAGGGGGCCUGGAAGUUUGGACUGGGCAGAGCUCAACACAGCGUGGCAAAGUGGCUGUGGCUAGACUGCCUCUCUGGAUUCCUCGUCACUCAGCAGGGCAUCUCUGAGAGAAAUGCC

Variants of: B1
Experiment: self-cleavage, relative activity (ratio to wild type); higher = more cleavage; in vitro, sequencing; the parent is a self-cleaving ribozyme

Row | Variant | self-cleavage
1 | G7A G97A | 0.1
2 | G7U A69G | 0.94
3 | A6U U45C | 1.35
4 | A6U | 0.99
5 | A6G U112C | 0.96
6 | A6G U112A | 0.95
7 | G7A U85C | 0.11
8 | A6U U20C | 1.19
9 | A6U U20A | 1.21
10 | G7A U14C | 0.88
11 | G7A G127A | 1.3
12 | G7C U91C | 0
13 | G8A U12C | 1.17
14 | G7A U108C | 1.57
15 | A6G U132A | 1.04
16 | A6U U15C | 1.09
17 | A6U U15A | 0.63
18 | A6U A141G | 0.94
19 | A6G U130C | 0.81
20 | G8A G82A | 1.71
21 | G8A C120U | 2.87
22 | A6G G126A | 0.99
23 | A6U A124G | 0.6
24 | G7U A79G | 0.87

Row | Variant | self-cleavage
25 | A6G U14A | 0.95
26 | G7U A141G | 1.62
27 | G7A U109A | 1.49
28 | A6G U45C | 0.5
29 | A6G U45G | 0.97
30 | A6U G97A | 0.12
31 | G7A U112C | 1.22
32 | A6U U102C | 0.68
33 | A6U G127A | 0.59
34 | A6G U115G | 2.04
35 | A6G U115A | 0.64
36 | A6U C133U | 1.04
37 | G7U U39A | 1.67
38 | G8A A124G | 1.04
39 | A6U U46C | 0.14
40 | G7A U46A | 1.23
41 | G8A C37A | 0.87
42 | A6U C145U | 0.48
43 | G7A A121G | 1.18
44 | G8A A117C | 1.03
45 | G8A C113A | 1.31
46 | G7A U39C | 0.83
47 | G7A G8C | 0
48 | G8A G34U | 1.22

Row | Variant | self-cleavage
49 | G7A A30G | 0.84
50 | G8A A57U | 0.16
51 | A6U C63G | 0.19
52 | G8A A69C | 0.04
53 | A6G U62C | 0.18
54 | A6G U62G | 0.11
55 | G7A A94U | 0
56 | G7A A94G | 0.14
57 | A6G G127A | 0.46
58 | G7U A77U | 1.04
59 | G7A A129G | 1.85
60 | G7A A129C | 1.07
61 | A6U U87C | 0.16
62 | A6U U87A | 0.15
63 | A6G U134G | 0.8
64 | A6U U14C | 0.92
65 | A6G U46C | 0.8
66 | A6G U46A | 0.94
67 | A6G G125A | 0.77
68 | G7U A64G | 0.35
69 | G7U U46C | 0.47
70 | G8A A43G | 1.08
71 | A6G U26C | 0.9
72 | A6U U104A | 1.16

Row | Variant | self-cleavage
73 | A6U U104G | 0.48
74 | G8A A22G | 1
75 | A6U U73A | 1.54
76 | A6U U12C | 1.43
77 | G8A A138G | 2.47
78 | A6G U119A | 1.52
79 | G8A G44A | 1.08
80 | A6G U15G | 0.97
81 | A6U U119A | 1.74
82 | A6G U96A | 0.2
83 | A6G U96C | 0.41
84 | G8A U9C | 0.63
85 | G7U A94G | 0.36
86 | A6G U104A | 0.73
87 | A6G U109C | 0.71
88 | A6U A22G | 0.87
89 | A6U U96C | 0.09
90 | G7U U73A | 1.14
91 | A6G U52A | 0.43
92 | G8A G135A | 1.23
93 | G7A G89A | 0.02
94 | A6U C95A | 0.07
95 | A6U A107G | 1.05
96 | G7U U104C | 0.9

Row | Variant | self-cleavage
97 | A6U U39C | 0.84
98 | A6U U39A | 1.16
99 | A6G U39A | 0.6
100 | A6U A138G | 1.15
101 | G7U A138G | 1.31
102 | A6U U100A | 0.52
103 | A6U U100C | 0.76
104 | A6G U143C | 0.57
105 | A6G U23C | 0.93
106 | A6G U9A | 0.75
107 | G7A U132C | 1.2
108 | G7U C123G | 1.13
109 | G8A U15C | 1.97
110 | G7U U62C | 0.04
111 | A6U U143G | 1.12
112 | G7C A142C | 1.1
113 | G7U G11C | 1.02
114 | A6G U73C | 1.34
115 | G8A G49A | 1.07
116 | A6G U29C | 0.74
117 | G8A A79G | 1.36
118 | A6U U52A | 1
119 | G7U U15A | 0.97
120 | A6U G75U | 0.53

Row | Variant | self-cleavage
121 | G8A G125U | 1.53
122 | A6G G144A | 1.21
123 | A6G U20A | 1.05
124 | G8A C61U | 0.06
125 | A6U A65U | 0.33
126 | A6U A65G | 0.26
127 | A6U A129U | 1.52
128 | G7A U104A | 1.11
129 | G7A U104C | 1.15
130 | A6G U108C | 0.79
131 | G8A A30G | 0.67
132 | G7A U87C | 0.07
133 | G7A U87A | 0.04
134 | G7C U85A | 0.2
135 | A6U A50G | 0.72
136 | G8A G70A | 0.17
137 | G7U A140U | 1.34
138 | A6U A140G | 0.77
139 | A6G U87C | 0.15
140 | G7A U20A | 0.96
141 | A6G G122A | 0.55
142 | G7A U134C | 1.17
143 | A6U A42G | 0.58
144 | A6G U100G | 0.95

Row | Variant | self-cleavage
145 | A6U A57G | 0
146 | A6U A57U | 0.08
147 | G7A A79G | 0.61
148 | A6G U12G | 0.85
149 | A6G U12C | 0.73
150 | A6U A78G | 0.77
151 | A6U U91C | 0.52
152 | G7U A78G | 0.88
153 | A6U C56U | 0.21
154 | G7A A57U | 0.07
155 | G7A A22U | 0.73
156 | G7A A22G | 1.36
157 | A6U G34U | 1.02
158 | G7A A78G | 1.12
159 | G8A A64G | 0.42
160 | G8A | 1.45
161 | A6G U102C | 0.68
162 | A6U U23C | 1.31
163 | A6U U23A | 0.26
164 | G7A U73A | 1.31
165 | A6G U81A | 1.47
166 | G7U U14C | 1.39
167 | A6U A79G | 0.8
